8 molecules from patent US20080200654A1 (KIRIN PHARMA, published 2008) can be followed below.

Test [1] has as its target T1, A33 antigen (full-length human A33) (human, UniProt Q99795 22-319).
T1 construct: Class I cell membrane protein of the Ig superfamily; also called GPA33; human A33 antigen
T1 sequence: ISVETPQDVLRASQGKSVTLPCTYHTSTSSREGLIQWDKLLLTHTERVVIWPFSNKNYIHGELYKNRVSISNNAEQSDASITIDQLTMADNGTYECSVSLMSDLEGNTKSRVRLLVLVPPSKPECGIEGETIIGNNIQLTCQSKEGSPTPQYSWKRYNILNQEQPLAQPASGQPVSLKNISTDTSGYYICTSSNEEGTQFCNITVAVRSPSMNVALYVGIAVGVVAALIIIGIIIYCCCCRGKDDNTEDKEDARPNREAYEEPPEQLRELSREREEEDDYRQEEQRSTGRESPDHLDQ
Description: FCM competition on COLO205 cells; antibody 1 µg/ml, competitor mouse anti-A33 antibody 100 µg/ml. The protocol: Whether or not each type of purified monoclonal antibody obtained in Example 8 recognizes an epitope similar to that of the mouse anti-A33 antibody was examined by a competition test using FCM. The COLO205 cell line was suspended at a concentration of 2×10⁶/ml in a PBS Staining Buffer (SB) containing 0.1% NaN₃ and 2% FCS. The cell suspension (50 μl/well) was dispensed in a 96-well round bottom plate (produced by Becton, Dickinson and Company). The purified mouse anti-A33 antibody prepared in Example 1 was not added or added at a concentration of 100 μg/ml to the wells containing each type of purified monoclonal antibody (1 μg/ml and 50 μl), followed by 30 minutes of incubation on ice. A mouse negative control (containing no purified anti-A33 antibody added thereto) was prepared as follows. A human IgG1 antibody (produced by Sigma) was adjusted at a concentration of 1 μg/ml with SB and then 50 μl of the solution was added, followed by 30 minutes of incubation on ice. The resultant was washed twice with SB and then 50 μl of FITC fluorescence-labeled goat anti-human IgG F(ab′)₂ antibody (produced by IBL) was added, followed by 30 minutes of incubation on ice. The resultant was washed once with SB and then the resultant was suspended in 300 μl of a FACS buffer. The mean fluorescence intensity of each cell line was measured by FACS (FACScan produced by Becton, Dickinson and Company). The inhibition (%) between each type of purified monoclonal antibody and the mouse A33 antibody was calculated by the following formula: […]

Test [2] has as its target T1, A33 antigen (full-length human A33). Briefly: FCM on LoVo cells; grade = ng/ml to reach half MFI 25 (+++ 10<=x<100, ++ 100<=x<1000, + 1000<=x<10000). An excerpt:
(§1) The reactivity of each type of purified monoclonal antibody obtained in Example 8 to A33-antigen-expressing human colorectal cancer cell line COLO205 cells, LoVo cells (ATCC No. CCL-229), LS174T cells (ATCC No. CL-188), and NCI-H508 cells (ATCC No. CCL-253) was examined by FCM. Human colorectal cancer cell line HT-29 cells (ATCC No. HTB-38) expressing no A33 antigen were also examined as negative control cells. Each cell line was suspended at a concentration of 2×10⁶/ml in a PBS Staining Buffer (SB) containing 0.1% NaN₃ and 2% FCS. The cell suspension (50 μl/well) was dispensed in a 96-well round bottom plate (produced by Becton, Dickinson and Company). 50 μl of each type of purified monoclonal antibody (adjusted using SB at a concentration of 2000, 400, 80, or 16 ng/ml) was added, and then incubation was performed on ice for 30 minutes. A negative control was prepared depending on each subclass. Specifically, a human IgG1 antibody (produced by Sigma) was adjusted using SB at a concentration of 2000, 400, 80, or 16 ng/ml. 50 μl of the solution was added, followed by 30 minutes of incubation on ice. The resultant was washed twice with SB and then 50 μl of an FITC fluorescence-labeled goat anti-human IgG F(ab′)₂ antibody (produced by Southern Biotech), followed by 30 minutes of incubation on ice. The resultant was washed once with SB and then the resultant was suspended in 300 μl of a FACS buffer. The mean fluorescence intensity of each cell line was measured by FACS (FACScan produced by Becton, Dickinson and Company).
(§2) For COLO205 cells, the half value of the mean fluorescence intensity was determined to be 90. For LoVo cells, the half value of the mean fluorescence intensity was determined to be 25. […] When an antibody concentration required to reach such value was 10<=x<100 ng/ml, the reactivity was represented by +++, when the same was 100<=x<1000 ng/ml, the reactivity was represented by ++, and when the same was 1000<=x<10000 ng/ml, the reactivity was represented by +. When no binding was observed, the reactivity was represented by −.

For test [3] the target is unchanged. Briefly: FCM on COLO205 cells; grade = ng/ml to reach half MFI 90 (+++ 10<=x<100, ++ 100<=x<1000, + 1000<=x<10000).
Excerpt: as §1, §2

Test [4] shares this target. Briefly: FCM on LS174T cells; grade = ng/ml to reach half MFI 125 (+++ 10<=x<100, ++ 100<=x<1000, + 1000<=x<10000).
Excerpt: as §1, §2

Test [5] has the same target. Briefly: FCM on NCI-H508 cells; grade = ng/ml to reach half MFI 125 (+++ 10<=x<100, ++ 100<=x<1000, + 1000<=x<10000).
Excerpt: as §1, §2

Where a chain is given by its changes, count along the chain named.

B1: 125N26F6AA (antibody, human IgG1, kappa, V domains shown)
VH: QVQLVESGGGVVQPGRSLRLSCAASGFTFSHYGMHWVRQAPGKGLEWVALIWYDGSNKYYADSVKGRFTISRDNSKNTLYLQMNSLRAEDTAVYYCARDPLAAGTSYFDYWGQGTLVTVSS
VL: EIVLTQSPDFQSVTPKEKVTITCRASQSIGSSLHWYQQKPDQSPKLLIKYASQSFSGVPSRFSGSGSGTDFTLTINSLEAEDAAAYYCHQSSSLPFTFGPGTKVDIKR
notes: Human IgG1 kappa antibody purified from hybridoma 125N26F6AA (FERM BP-10109); also called 125N26F6AA antibody
As to B1, the “Inhibition (%)” value in test [1] was found to be 98%. The “antibody concentration required to reach half value of mean fluorescence intensity” value (from here on “antibody concentration required”) is 10 to 100 ng/mL in test [2], 10 to 100 ng/mL in test [3], 100 to 1000 ng/mL in test [4] and 100 to 1000 ng/mL in test [5].

B2: 125M10AA (antibody, human IgG1, kappa, V domains shown)
VH: QLQVQESGPGLVKPSETLSLICTVSGGSIRTSGYYWGWFRQPPGKGLEWIGTSHNSGSTYYNPSLKSRVTISVDTSKNQFSLKLNSVTAADTAVYYCARQGYDFKVNIDVWGQGTTVTVSS
VL: EIVLTQSPATLSLSPGERATLSCRASQSVSSYLAWYQQKPGQAPRLLIYDASNRATGIPARFSGSGSGTDFTLTISSLEPEDFAVYYCQQRSNWPLTFGGGTKVEIKR
notes: Human IgG1 kappa antibody purified from hybridoma 125M10AA (FERM BP-10107); also called 125M10AA antibody
As to B2, in test [1], the “Inhibition (%)” value is 5%. Besides, the “antibody concentration required” value in test [2], in test [3], in test [4] and in test [5] was 10 to 100 ng/mL in each case.

B3: 263A17 (antibody, V domains shown)
VH: EVQLLESGGGLVQPGGSLRLSCAASGFTFSSYAMSWIRQAPGKGLEWVSAISASGGSTYYADSVKGRFTISRDNSKNTLYLQMNSLRAEDTAVYYCAKDRIVGATNYYYGMDVWGQGTTVTVSS
VL: DIQMTQSPPSVSASVGDRVTITCRASQGISSWLAWYQHKPGKAPKLLIYGASSLQSGVPSRFSGSGSGTDFTLTISSLQPEDFATYYCQQANSFPITFGQGTRLEIK
notes: Human IgG1 kappa antibody purified from the hybridoma; also called 263A17 antibody
As for B3, the “Inhibition (%)” value in test [1] stood at 3.7%. For the same molecule, the “antibody concentration required” value in test [2], in test [3], in test [4] and in test [5] was 100 to 1000 ng/mL throughout.

B4: 125M165DAAA (antibody, V domains shown)
VH: QVQLVESGGGVVQPGRSLRLSCAASGFTFSYYGMHWVRQAPGKGLEWVAVIWYDGSNKYYADSVKGRFTISRDNSKKTLYLQMNSLRAEDTAVYYCARDGHSSGWGDFQHWGQGTLVTVSS
VL: EIVLTQSPATLSLSPGERATLSCRASQSVSSSLAWYQQKPGQAPRLLIYDASNRATGIPARFSGSGSGTDFTLTISSLEPEDFAIYYCQQRSNWPPTFGQGTKVEIK
notes: Human IgG1 kappa antibody purified from the hybridoma (FERM BP-10106); also called 125M165DAAA antibody
As for B4, the “Inhibition (%)” value in test [1] was determined as 96%. Moreover, the “antibody concentration required” value is 10 to 100 ng/mL in test [2], 10 to 100 ng/mL in test [3], 100 to 1000 ng/mL in test [4] and 100 to 1000 ng/mL in test [5].

B5: 125M96ABA (antibody, V domains shown)
VH: QLQLQESGPGLVKPSETLSLTCTVSGGSISTSSYYWGWIRQPPGKGLEWIGTIYYNGSTYYSPSLKSRVSISVDTSKNQFSLKLSSVTAADTSVYYCARQGYDIKINIDVWGQGTTVTVSS
VL: B4 VL with S32Y, D50V, I85V, P96L, Q100G
notes: Human IgG1 kappa antibody purified from the hybridoma (FERM BP-10108); also called 125M96ABA antibody
B5: the “Inhibition (%)” value in test [1] was 22.8%. The “antibody concentration required” value fell in the range of 10 to 100 ng/mL in test [2], 10 to 100 ng/mL in test [3], 100 to 1000 ng/mL in test [4] and 100 to 1000 ng/mL in test [5].

B6: 125Q54AAAA (antibody, V domains shown)
VH: EVQLLESGGGLVQPGGSLRLSCAASGFTFSSYAMSWVRQAPGKGLEWVSDISGSGGYTYYADSVKGRFTISRDNSKNTLYLQMNSLRAEDTAVYYCAKTGDGSGSYSPDSWGQGTLVTVSS
VL: DIQMTQSPSSLSASVGDRVTITCRASQGISRWLAWYQQKPEKAPKSLIYAASSLQSGVPSRFSGSGSGTDFTLTISSLQPEDFATYYCQQYNSYPYTFGQGTKLEIK
notes: Human IgG1 kappa antibody purified from the hybridoma (FERM BP-10105); also called 125Q54AAAA antibody
Take B6: the “Inhibition (%)” value in test [1] came to 46.5%. In addition, the “antibody concentration required” value in test [2] is 10 to 100 ng/mL; in test [3] it was 10 to 100 ng/mL; in test [4], 100 to 1000 ng/mL; in test [5] it was 100 to 1000 ng/mL.

B7: 125R5AAAA (antibody, V domains shown)
VH: B6 VH with N77K, S110Y
VL: B6 VL with R31S
notes: Human IgG1 kappa antibody purified from the hybridoma (FERM BP-10103); also called 125R5AAAA antibody
With B7, the “Inhibition (%)” value in test [1] came to 63.9%. The “antibody concentration required” value in test [2] fell in the range of 10 to 100 ng/mL; in test [3], 10 to 100 ng/mL; in test [4], 100 to 1000 ng/mL; in test [5], 100 to 1000 ng/mL.

B8: 125Q47BA (antibody, V domains shown)
VH: B6 VH with S35T, D101A
VL: B6 VL with R31S
notes: Human IgG1 kappa antibody purified from the hybridoma (FERM BP-10104); also called 125Q47BA antibody
B8: the “Inhibition (%)” value in test [1] is 64.1%. The “antibody concentration required” value in test [2] fell in the range of 10 to 100 ng/mL; in test [3], 10 to 100 ng/mL; in test [4], 100 to 1000 ng/mL; in test [5] it was 100 to 1000 ng/mL.
